From publication PMC3973953

B1: A. oryzae β-galactosidase (Aspergillus oryzae RIB40) (protein)
chain: ASIKHRLNGFTILEHPDPAKRDLLQDIVTWDDKSLFINGERIMLFSGEVHPFRLPVPSLWLDIFHKIRALGFNCVSFYIDWALLEGKPGDYRAEGIFALEPFFDAAKEAGIYLIARPGSYINAEVSGGGFPGWLQRVNGTLRSSDEPFLKATDNYIANAAAAVAKAQITNGGPVILYQPENEYSGGCCGVKYPDADYMQYVMDQARKADIVVPFISNDASPSGHNAPGSGTGAVDIYGHDSYPLGFDCANPSVWPEGKLPDNFRTLHLEQSPSTPYSLLEFQAGAFDPWGGPGFEKCYALVNHEFSRVFYRNDLSFGVSTFNLYMTFGGTNWGNLGHPGGYTSYDYGSPITETRNVTREKYSDIKLLANFVKASPSYLTATPRNLTTGVYTDTSDLAVTPLIGDSPGSFFVVRHTDYSSQESTSYKLKLPTSAGNLTIPQLEGTLSLNGRDSKIHVVDYNVSGTNIIYSTAEVFTWKKFDGNKVLVLYGGPKEHHELAIASKSNVTIIEGSDSGIVSTRKGSSVIIGWDVSSTRRIVQVGDLRVFLLDRNSAYNYWVPELPTEGTSPGFSTSKTTASSIIVKAGYLLRGAHLDGADLHLTADFNATTPIEVIGAPTGAKNLFVNGEKASHTVDKNGIWSSEVKYAAPEIKLPGLKDLDWKYLDTLPEIKSSYDDSAWVSADLPKTKNTHRPLDTPTSLYSSDYGFHTGYLIYRGHFVANGKESEFFIRTQGGSAFGSSVWLNETYLGSWTGADYAMDGNSTYKLSQLESGKNYVITVVIDNLGLDENWTVGEETMKNPRGILSYKLSGQDASAITWKLTGNLGGEDYQDKVRGPLNEGGLYAERQGFHQPQPPSESWESGSPLEGLSKPGIGFYTAQFDLDLPKGWDVPLYFNFGNNTQAARAQLYVNGYQYGKFTGNVGPQTSFPVPEGILNYRGTNYVALSLWALESDGAKLGSFELSYTTPVLTGYGNVESPEQPKYEQRKGAY
B2: A. nidulans rlacA (Aspergillus nidulans FGSC A4) (protein)
chain: VALTHKLNGFTITEHPDAEKRELLQKYVTWDDKSLFINGERIMIFGAEIHPWRLPVPSLWRDILQKVKALGFNCVSFYVDWALLEGKPGEYRAEGSFAWEPFFDAASDLGIYLIARPGPYINAEASGGGFPGWLQRLNGTIRSSDQSYLDATENYVSHIGGLIAKYQITNGGPVILYQPDNEYSGGCCGQEFPNPDYFQYVIDQARRAGIVVPTISNDAWPGGHNAPGTGKGEVDIYGHDNYPLGFDCANPDVWPEGNLPTDYRDLHLEISPSTPYALVEYQVGAFDPWGGPGFEQCAALTGYEFERVFHKNTFSFGVGILSLYMTFGGTNWGNLGHPGGYTSYDYGSPIKETREITREKYSELKLLGNFIKSSPGYLLATPGKLTNTTYTNTADLTVTPLLGNGTGSFFVLRHSDYSSQASTPYKLRLPTSAGQLTIPQLGGSLVLNGRDSKVHLVDYDVAGTKILYSTAEVFTWKKFHDGKVLVLYGGPGEHHELAVSSKAKVKVVEGLGSGISSKQIRGAVVVAWDVEPARRIVQIGDLKIFLLDRNSAYNYWVPQLGTETSIPYATEKAVAASVIVKAGYLVRTAYVKGRDLHLTADFNATTPVEVIGAPKTAENLFINGKKAHHTVDKNGIWSTEVGYSPPKIVLPVLEDLKWKSIDTLPEIQPSYDDSPWPDANLPTKNTIYPLRTPTSLYASDYGFHTGYLLFRGHFTANGRESNFSIQTQGGQAFGSSVWLSGTYLGSWTGDNDYQDYNATYTLPSLKAGKEYVFTVVVDNMGLNENWIVGQDEMKKPRGILNYELSGHEASDITWKLTGNFGGEDYVDKVRGPLNEGGLYAERHGYHQPYPPTKSKDWKSSTPLTGLSKPGISFYTASFDLDIKSGWDVPIYFEFGNSTTPAPAYRVQLYVNGWQYGKYVNNIGPQTRFPVPEGILNYKGTNWVAVTLWALEGSGAKLDSFKLVHGIPVRTALDVEGVELPRYQSRKGVY

Substrate: O=[N+]([O-])c1ccc(O[C@@H]2O[C@H](CO)[C@H](O)[C@H](O)[C@H]2O)cc1
Assay: purified protein
Details: McIlvaine buffer at optimal pH, 37 °C

Protein | Km [µM] | kcat [s⁻¹] | kcat/Km [M⁻¹ s⁻¹]
B1 | 3020 ± 610 | 46.4 ± 1.2 | 14600 ± 600
B2 | 1850 ± 210 | 63.4 ± 0.9 | 34100 ± 1500
